Data: US20220008527A1 (AGENUS, published 2022)

B1: polypeptide LGVVRPRALHRELDLVDDSPTPGSPGSFFRKNWLRLTW (SEQ ID NO: 77) (peptide)
peptide: LGVVRPRALHRELDLVDDSPTPGSPGSFFRKNWLRLTW
notes: also called polypeptide comprising PEP006; PEP006-containing polypeptide

Biological target: T1, recombinant human heat shock cognate 71 kDa protein (Hsc70) (human, UniProt P11142 1-646, limits assumed)
T1 construct: also called rhHsc70; human Hsc70
Assay: SEC of peptide-Hsc70 mixture; peptide:Hsc70 molar ratio 0.25:1

T1 sequence (P11142 whole entry): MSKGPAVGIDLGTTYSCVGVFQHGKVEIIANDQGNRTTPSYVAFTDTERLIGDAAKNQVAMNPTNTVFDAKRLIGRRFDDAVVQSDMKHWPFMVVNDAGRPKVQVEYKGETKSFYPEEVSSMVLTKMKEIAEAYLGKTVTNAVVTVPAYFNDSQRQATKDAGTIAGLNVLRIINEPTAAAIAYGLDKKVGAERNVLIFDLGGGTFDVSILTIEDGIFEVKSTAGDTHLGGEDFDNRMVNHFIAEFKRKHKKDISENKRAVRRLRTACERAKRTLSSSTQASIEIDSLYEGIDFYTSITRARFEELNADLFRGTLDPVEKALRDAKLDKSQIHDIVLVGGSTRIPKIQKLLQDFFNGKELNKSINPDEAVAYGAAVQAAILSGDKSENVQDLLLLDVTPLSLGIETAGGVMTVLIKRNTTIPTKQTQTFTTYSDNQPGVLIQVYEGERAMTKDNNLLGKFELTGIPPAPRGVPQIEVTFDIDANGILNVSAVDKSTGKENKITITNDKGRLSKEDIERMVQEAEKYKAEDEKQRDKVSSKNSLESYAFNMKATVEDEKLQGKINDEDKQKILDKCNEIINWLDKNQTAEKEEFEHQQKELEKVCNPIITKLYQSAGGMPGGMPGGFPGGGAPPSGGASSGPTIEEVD

Percent complexation with Hsc70	Binder
19.2%	FFRKNRLLLTG (Synthetic peptide) [PEP002]
16%	FFRKNRLWLTG (Synthetic peptide) [PEP005]
19.1%	FFRKNFLRLTF (Synthetic peptide) [PEP027]
22.7%	FFRKNWLKLWK (Synthetic peptide) [PEP058]
25.6%	FFRKNWIRITW (Synthetic peptide) [PEP013]
24%	FRNWLRLTW (Synthetic peptide) [PEP028]
25.4%	FFRKNWLRLTW (Synthetic peptide) [PEP006]
29.9%	FFRKNWLKLTW (Synthetic peptide) [PEP012]
26.8%	FFRKNWLLLTW (Synthetic peptide) [PEP003]
24.4%	FFRKFWLRLTW (Synthetic peptide) [PEP008]
19.1%	FFRKNWLRLFW (Synthetic peptide) [PEP010]
15.4%	FFRKNLLRWTG (Synthetic peptide) [PEP004]
24.1%	FFRKNWLKLKW (Synthetic peptide) [PEP055]
24.9%	FFRKNWLKLRW (Synthetic peptide) [PEP057]
29.3%	FFRKQWLRLTW (Synthetic peptide) [PEP014]
22.5%	FFRKNLLRLTW (Synthetic peptide) [PEP155]
31.2%	FFRKNWLRLKW (Synthetic peptide) [PEP011]
23.4%	FFRKNLLRLTG (Synthetic peptide) [PEP001]
32.8%	FFRKNWLRLLW (Synthetic peptide) [PEP009]

Biological target: T1, recombinant human heat shock cognate 71 …
Assay: size exclusion chromatography of polypeptide-Hsc70 mixtures, molar ratios 0.125:1 to 4:1 (FIG. 3A)

binding result	Binder
binds	B1

Biological target: T1, recombinant human heat shock cognate 71 …
Assay: SEC of peptide-Hsc70 mixture; peptide:Hsc70 molar ratio 0.5:1

Percent complexation with Hsc70	Binder
32%	FFRKNRLLLTG (Synthetic peptide) [PEP002]
32.7%	FFRKNRLWLTG (Synthetic peptide) [PEP005]
49%	FFRKNFLRLTF (Synthetic peptide) [PEP027]
43.5%	FFRKNWLKLWK (Synthetic peptide) [PEP058]
48.3%	FFRKNWIRITW (Synthetic peptide) [PEP013]
46.4%	FRNWLRLTW (Synthetic peptide) [PEP028]
53.4%	FFRKNWLRLTW (Synthetic peptide) [PEP006]
58.2%	FFRKNWLKLTW (Synthetic peptide) [PEP012]
45.6%	FFRKNWLLLTW (Synthetic peptide) [PEP003]
38.3%	FFRKFWLRLTW (Synthetic peptide) [PEP008]
42.2%	FFRKNWLRLFW (Synthetic peptide) [PEP010]
29%	FFRKNLLRWTG (Synthetic peptide) [PEP004]
52.2%	FFRKNWLKLKW (Synthetic peptide) [PEP055]
50%	FFRKNWLKLRW (Synthetic peptide) [PEP057]
54.4%	FFRKQWLRLTW (Synthetic peptide) [PEP014]
48.1%	FFRKNLLRLTW (Synthetic peptide) [PEP155]
58.2%	FFRKNWLRLKW (Synthetic peptide) [PEP011]
44.7%	FFRKNLLRLTG (Synthetic peptide) [PEP001]
63.5%	FFRKNWLRLLW (Synthetic peptide) [PEP009]

Biological target: T1, recombinant human heat shock cognate 71 …
Assay: SEC of peptide-Hsc70 mixture; peptide:Hsc70 molar ratio 2:1

Percent complexation with Hsc70	Binder
64.8%	FFRKNRLLLTG (Synthetic peptide) [PEP002]
67.6%	FFRKNRLWLTG (Synthetic peptide) [PEP005]
85.6%	FFRKNFLRLTF (Synthetic peptide) [PEP027]
78.8%	FFRKNWLKLWK (Synthetic peptide) [PEP058]
81.9%	FFRKNWIRITW (Synthetic peptide) [PEP013]
84.1%	FRNWLRLTW (Synthetic peptide) [PEP028]
88.3%	FFRKNWLRLTW (Synthetic peptide) [PEP006]
86.2%	FFRKNWLKLTW (Synthetic peptide) [PEP012]
81.3%	FFRKNWLLLTW (Synthetic peptide) [PEP003]
79.1%	FFRKFWLRLTW (Synthetic peptide) [PEP008]
79.3%	FFRKNWLRLFW (Synthetic peptide) [PEP010]
62.5%	FFRKNLLRWTG (Synthetic peptide) [PEP004]
83.7%	FFRKNWLKLKW (Synthetic peptide) [PEP055]
82.8%	FFRKNWLKLRW (Synthetic peptide) [PEP057]
88.1%	FFRKQWLRLTW (Synthetic peptide) [PEP014]
82.9%	FFRKNLLRLTW (Synthetic peptide) [PEP155]
87.8%	FFRKNWLRLKW (Synthetic peptide) [PEP011]
82.5%	FFRKNLLRLTG (Synthetic peptide) [PEP001]
85.3%	FFRKNWLRLLW (Synthetic peptide) [PEP009]

Biological target: T1, recombinant human heat shock cognate 71 …
Assay: SEC of peptide-Hsc70 mixture; peptide:Hsc70 molar ratio 1:1

Percent complexation with Hsc70	Binder
48.7%	FFRKNRLLLTG (Synthetic peptide) [PEP002]
54.8%	FFRKNRLWLTG (Synthetic peptide) [PEP005]
77%	FFRKNFLRLTF (Synthetic peptide) [PEP027]
66.5%	FFRKNWLKLWK (Synthetic peptide) [PEP058]
69.6%	FFRKNWIRITW (Synthetic peptide) [PEP013]
75.6%	FRNWLRLTW (Synthetic peptide) [PEP028]
81.5%	FFRKNWLRLTW (Synthetic peptide) [PEP006]
79.2%	FFRKNWLKLTW (Synthetic peptide) [PEP012]
67.2%	FFRKNWLLLTW (Synthetic peptide) [PEP003]
61.8%	FFRKFWLRLTW (Synthetic peptide) [PEP008]
64.9%	FFRKNWLRLFW (Synthetic peptide) [PEP010]
46.8%	FFRKNLLRWTG (Synthetic peptide) [PEP004]
75.9%	FFRKNWLKLKW (Synthetic peptide) [PEP055]
72.2%	FFRKNWLKLRW (Synthetic peptide) [PEP057]
80.9%	FFRKQWLRLTW (Synthetic peptide) [PEP014]
75.6%	FFRKNLLRLTW (Synthetic peptide) [PEP155]
81.6%	FFRKNWLRLKW (Synthetic peptide) [PEP011]
68.1%	FFRKNLLRLTG (Synthetic peptide) [PEP001]
81%	FFRKNWLRLLW (Synthetic peptide) [PEP009]

Biological target: T1, recombinant human heat shock cognate 71 …
Assay: SEC of peptide-Hsc70 mixture; peptide:Hsc70 molar ratio 4:1

Percent complexation with Hsc70	Binder
78.8%	FFRKNRLLLTG (Synthetic peptide) [PEP002]
77.6%	FFRKNRLWLTG (Synthetic peptide) [PEP005]
90%	FFRKNFLRLTF (Synthetic peptide) [PEP027]
83.9%	FFRKNWLKLWK (Synthetic peptide) [PEP058]
87.7%	FFRKNWIRITW (Synthetic peptide) [PEP013]
87.5%	FRNWLRLTW (Synthetic peptide) [PEP028]
91.8%	FFRKNWLRLTW (Synthetic peptide) [PEP006]
89.5%	FFRKNWLKLTW (Synthetic peptide) [PEP012]
87.6%	FFRKNWLLLTW (Synthetic peptide) [PEP003]
81.6%	FFRKFWLRLTW (Synthetic peptide) [PEP008]
86.5%	FFRKNWLRLFW (Synthetic peptide) [PEP010]
75.3%	FFRKNLLRWTG (Synthetic peptide) [PEP004]
86.3%	FFRKNWLKLKW (Synthetic peptide) [PEP055]
88.3%	FFRKNWLKLRW (Synthetic peptide) [PEP057]
90.3%	FFRKQWLRLTW (Synthetic peptide) [PEP014]
86.6%	FFRKNLLRLTW (Synthetic peptide) [PEP155]
90.4%	FFRKNWLRLKW (Synthetic peptide) [PEP011]
90.1%	FFRKNLLRLTG (Synthetic peptide) [PEP001]
89%	FFRKNWLRLLW (Synthetic peptide) [PEP009]
